Laboratory results taken from publication PMC6506404.

What was measured:
Assay in all cases: cryo-EM structure
[1] = target: BMC-T^D2 shell protein of the Haliangium ochraceum (HO) BMC shell (Haliangium ochraceum) (UniProt D0LID6)
[2] = target: BMC-T^D3 shell protein of the Haliangium ochraceum (HO) BMC shell (Haliangium ochraceum) (UniProt D0LV02)
[3] = target: BMC-T^S1 shell protein of the Haliangium ochraceum (HO) BMC shell (Haliangium ochraceum)

Substance: BMC-T^D2 shell protein of the Haliangium ochraceum (HO) BMC shell (from UniProt D0LID6 1-212) (natural protein)
- stoichiometry N [1]: 6

Substance: BMC-T^D3 shell protein of the Haliangium ochraceum (HO) BMC shell (from UniProt D0LV02 1-206) (natural protein)
- stoichiometry N [2]: 6

Substance: BMC-T^S1 shell protein of the Haliangium ochraceum (HO) BMC shell (natural protein)
- stoichiometry N [3]: 3
